From patent US20110008841A1 (Amgen, published 2011)
Residue numbers refer to the chain shown, from its start. Values belong to the binder of their own block, whether it stands above or below them.

Columns and labels:
[1] = biological target: T1, cynomolgus IL-17RA on cells (cynomolgus); experiment: FACS, biotin-huIL-17A on cyno IL-17RA+ cells with non-clonal supernatant; lower = more inhibition
T1 construct: whole, on cells; also called CHO-cynoIL-17RA; cyno IL-17RA+ CHO cells

[2] = biological target: Human IL-17RA full-length expressed on the surface of cells (human, UniProt Q96F46 33-866); experiment: cell-based or functional assay
[3] = biological target: T1, cynomolgus IL-17RA on cells; experiment: FACS, biotin-huIL-17A on cyno IL-17RA+ CHO cells with non-clonal supernatant; lower = more inhibition
Protocol: Non-clonal hybridoma supernatants were prepared in volumes of 1-2 mls (the Ig concentrations were not determined for these supernatants). […] Anti-IL-17RA non-clonal hybridomas were selected for sub-cloning based on their performance in the CHO-IL-17RA FACS assay and HFF bioassay.

[4] = biological target: T1, cynomolgus IL-17RA on cells; experiment: as above; remark: listed apart in the source
Protocol: The anti-IL-17RA antibodies were characterized. Non-clonal hybridoma supernatants were prepared in volumes of 1-2 mls (the Ig concentrations were not determined for these supernatants).

MFI [1]: 9
B1: AMH11/AML11 (antibody, IgG2, V domains shown)
VH: QVQLVESGGGVVQPGRSLRLSCATSGITFSSYGMHWVRQAPGKGLEWVAVIWYDGSNKYYADSVKGRFTISRDNSKNTLYLQMNSLRAEDTAVYYCARDTKDYWGQGTLVTVSS
VL: EIVMTQSPATLSVSPGERATLSCRASQSVSSNLAWYQQKPGQAPRLLIYGASTRAAGIPARFSGGGSGTAFTLTISNLQSEDFAVYYCQHYINWPKWTFGQGTKVDIK
notes: Fully human mAb from IgG2 XenoMouse mice; also called AM-11; antibody A

MFI [1]: 9
B2: AMH5/AML5 (antibody, V domains shown)
VH: QVQLQESGPGLVKPSETLPLTCTVSGGSIRSYYWSWIRQPAGKGLEWIGRIYRSGNTIYNPSLKSRVTMSIDTSKNQFSLTLSSVTAADTAVYYCARENYSESSGLYYYYGMDVWGQGTTVTVSS
VL: DIQMTQSPSSLSASVGDRVTITCRASQGIRNDLGWYQQKPGKAPKRLIYAASSFQSGVPSRFSGSGSGTGFTLTISSLQPEDFATYYCLQHNSYPPTFGQGTKVEIK
notes: also called AM-5

MFI [1]: 11
B3: AMH1/AML1 (antibody, IgG2, V domains shown)
VH: QVQLQESGPGLVKPSETLSLTCTVSGGSISNYYWNWIRQSPGKGLEWIGDIYYSGSTNYNPSLKSRVTISVDTSKNQFSLKLSSVTTADTAVYYCARDGELANYYGSGSYQFYYYYGMDVWGQGTTVTVSS
VL: B2 VL with Q3L, F54L, G70E, Y94N, P96F, Q100P, E105D
notes: Fully human mAb from IgG2 XenoMouse mice; also called AM-1; antibody H

IC50, HFF bioassay (ligand not named on the sheet) [2]: ~107 nM
B4: Germline version A (antibody, V domains shown)
VH: QVQLVQSGAEVKKPGASVKVSCKASGYTFTRYGISWVRQAPGQGLEWMGWISTYSGNTNYAQKLQGRVTMTTDTSTSTAYMELRSLRSDDTAVYYCARRQLYFDYWGQGTLVTVSS
VL: EIVMTQSPATLSVSPGERATLSCRASQSVSSNLAWYQQKPGQAPRLLIYDASTRATGIPARFSGSGSGTDFTLTISSLQSEDFAVYYCQQYDNWPLTFGGGTKVEIK

MFI [1]: 18
B5: AMH22/AML22 (antibody, IgG2, V domains shown)
VH: B4 VH with T53A
VL: B4 VL with A19V, Y36F, L46P, T56A
notes: Fully human mAb from IgG2 XenoMouse mice; also called AM-22; antibody I

MFI [3]: 8
B6: AMH17/AML17 (antibody, V domains shown)
VH: B4 VH with S17A, S25T, F29L, R31S, T53A, N59K, R99K, Y102V
VL: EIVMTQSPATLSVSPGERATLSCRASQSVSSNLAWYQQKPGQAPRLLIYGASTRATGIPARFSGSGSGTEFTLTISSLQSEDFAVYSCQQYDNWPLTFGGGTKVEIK
notes: Fully human mAb from IgG2 XenoMouse mice; also called AM-17; antibody N

MFI [4]: 6
B7: AMH15/AML15 (antibody, V domains shown)
VH: QVQLVESGGGVVQPGRSLRLSCAASGFTFSSYGMQWVRQAPGKGLEWVAVIWYDGNKKYYADSVKGRFTISRDNSKNTLYLQMNSLRAEDTAVYYCARGRVRDYYYGMDVWGQGTTVTVSS
VL: B4 VL with A19V, Y36F, L46P, T56A
notes: also called AM-15

IC50, HFF bioassay (ligand not named on the sheet) [2]: ~103 nM
B8: Germline version B (antibody, V domains shown)
VH: B4 VH
VL: B4 VL with D70E

MFI [3]: 6
B9: AMH12/AML12 (antibody, IgG2, V domains shown)
VH: B4 VH with F29L, R31S, S55K, R99K, Y102V
VL: B4 VL with V29I, N32S, D50G, D70E, D82N
notes: Fully human mAb from IgG2 XenoMouse mice; also called AM-12; antibody M

MFI [4]: 10
B10: AMH14/AML14 (antibody, V domains shown)
VH: B4 VH
VL: B4 VL with Y36F, L46P, I58V
notes: Fully human mAb from IgG2 XenoMouse mice; Biotinylated in the Octet assay; also called AM-14; antibody K

MFI [3]: 6
B11: AMH16/AML16 (antibody, IgG2, V domains shown)
VH: B4 VH with R31S, T53A, S55N, N59K, A79V, R99K, Y102V
VL: B4 VL with V29I, S31T, N32S, D50G, A51T, D70E, Y87F, N93I
notes: Fully human mAb from IgG2 XenoMouse mice; also called AM-16; antibody O

MFI [3]: 6
B12: AMH13/AML13 (antibody, IgG2, V domains shown)
VH: B7 VH
VL: DIVMTQTPLSLSVTPGQPASIACKSSQSLLHSDGKTYLYWYLQKPGQPPQLLIYEVSTRFSGVPDRFSGSGSGTDFTLKISRVEAEDVGVFYCMQSIQLPLTFGGGTKVEIK
notes: Fully human mAb from IgG2 XenoMouse mice; also called AM-13

MFI [4]: 6
B13: AMH21/AML21 (antibody, IgG2, V domains shown)
VH: EVQLVESGGGSVQPGGSLRLSCAASGFTFSSYSMNWVRQAPGKGLEWVSIISSRSSIIHYADSVKGRFTISRDNAKNSLYLQMNSLRDEDTAVYYCARPKVGGGMDVWGQGTTVTVSS
VL: DIQMTQSPSSLSASVGDRVTITCRASQGISNYLAWYQQKPGKFPELLIYAASTLQSGVPSRFSGSGSGTDFTLTISSLQPEDVATYYCQKYNRAPFTFGPGTKVDIK
notes: Fully human mAb from IgG2 XenoMouse mice; also called AM-21; antibody Q
